Earlier results as cited in article PMC12112028.
Where two headings read alike, the source gives them in different places.

What was measured:
[1] = biological target: KISS1R (Homo sapiens) (UniProt Q969F8)
[2] = biological target: KISS1R (Rattus norvegicus) (UniProt Q924U1); assay: competitive binding assay
[3] = biological target: KISS1R (Homo sapiens) (UniProt Q969F8); assay: competitive binding assay
[4] = biological target: KISS1R (Homo sapiens) (UniProt Q969F8); remark: listed apart in the source
[5] = biological target: KISS1R (Rattus norvegicus) (UniProt Q924U1)
[6] = biological target: KISS1R (Rattus norvegicus) (UniProt Q924U1); remark: listed apart in the source
[7] = biological target: KISS1R (Homo sapiens) (UniProt Q969F8); remark: listed apart in the source

Sequence of UniProt Q924U1 (Q924U1 whole entry): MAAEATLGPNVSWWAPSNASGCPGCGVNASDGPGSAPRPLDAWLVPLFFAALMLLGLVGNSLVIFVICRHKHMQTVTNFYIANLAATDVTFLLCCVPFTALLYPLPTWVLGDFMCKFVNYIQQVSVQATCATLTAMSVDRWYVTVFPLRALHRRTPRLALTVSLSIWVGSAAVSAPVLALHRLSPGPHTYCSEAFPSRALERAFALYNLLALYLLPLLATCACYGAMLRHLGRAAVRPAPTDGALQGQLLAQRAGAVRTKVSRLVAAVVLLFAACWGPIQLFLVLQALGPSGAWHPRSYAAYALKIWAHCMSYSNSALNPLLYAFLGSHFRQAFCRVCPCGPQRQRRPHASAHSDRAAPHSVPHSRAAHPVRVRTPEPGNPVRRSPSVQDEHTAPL
Sequence of UniProt Q969F8 (Q969F8 whole entry): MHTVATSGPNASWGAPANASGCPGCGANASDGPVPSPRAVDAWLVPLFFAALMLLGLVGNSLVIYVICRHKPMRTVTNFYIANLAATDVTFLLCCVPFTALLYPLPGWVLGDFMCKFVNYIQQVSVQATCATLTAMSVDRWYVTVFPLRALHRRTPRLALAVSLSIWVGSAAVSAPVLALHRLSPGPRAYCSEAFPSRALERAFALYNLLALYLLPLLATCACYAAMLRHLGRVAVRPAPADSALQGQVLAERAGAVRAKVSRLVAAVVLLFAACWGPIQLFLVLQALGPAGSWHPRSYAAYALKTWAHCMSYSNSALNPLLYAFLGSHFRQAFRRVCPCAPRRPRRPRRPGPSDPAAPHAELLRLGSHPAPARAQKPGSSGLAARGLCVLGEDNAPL

| Substance | Ki [1] [nM] | Ki [2] [nM] | Ki [3] [nM] | Kd [4] [nM] | Kd [5] [nM] | Ki [6] [nM] | Ki [7] [nM] |
| --- | --- | --- | --- | --- | --- | --- | --- |
| KP-13 (from UniProt Q15726) | 4.23 | 2.08 |  |  |  |  |  |
| KP-54 (from UniProt Q15726) |  | 1.81 | 1.45 |  |  |  |  |
| KP-10 (from UniProt Q15726) |  |  |  | 1.9 | 1 | 1.59 | 2.33 |
| KP-14 (from UniProt Q15726) |  | 2.04 | 1.65 |  |  |  |  |
